This note sets out measurements from patent US20190040153A1 (Novartis, published 2019).

The chains are these.
B1: NOV006 (antibody, human IgG1, kappa, V domains shown)
VH: QVQLQESGPGLVKPSQTLSLTCTVSGYSITSGYTWHWIRQHPGKGLEWIGYIHYSVYTNYNPSLKSRVTISRDTSKNQFSLKLSSVTAADTAVYYCARRTTSLERYFDVWGQGTLVTVSS
VL: EIVMTQSPATLSLSPGERATLSCRASQDISNYLNWYQQKPGQAPRLLIYYTSRLQSGIPARFSGSGSGADYTLTISSLQPEDFAVYFCQQGNTLPYTFGQGTKLEIKR
notes: Humanized mAb derived from mouse hybridoma 127F19
B2: NOV004 (antibody, human IgG1, kappa, V domains shown)
VH: EVQLVESGGGLVKPGGSLRLSCAVSGYSITSGYTWHWVRQAPGKGLEWLSYIHYSVYTNYNPSVKGRFTISRDTAKNSFYLQMNSLRAEDTAVYYCARRTTSLERYFDVWGQGTLVTVSS
VL: DIQMTQSPSSLSASVGDRVTITCQASQDISNYLNWYQQKPGKAPKLLIYYTSRLQSGVPSRFTGSGSGADYTFTISSLQPEDIATYFCQQGNTLPYTFGQGTKLEIKR
notes: as for B1
B3: NOV005 (antibody, human IgG1, kappa, V domains shown)
VH: B1 VH
VL: B2 VL with T63S
notes: as for B1

Residue numbers refer to the chain shown, from its start.

One assay deals with human FGFR1c_β-klotho receptor complex (on HEK293 cells) (human, UniProt P11362 22-822). Nature of the assay: cell-based or functional assay.
human FGFR1c_β-klotho receptor complex (on HEK293 cells), sequence (chain, as listed by the source, chain 1 of 2): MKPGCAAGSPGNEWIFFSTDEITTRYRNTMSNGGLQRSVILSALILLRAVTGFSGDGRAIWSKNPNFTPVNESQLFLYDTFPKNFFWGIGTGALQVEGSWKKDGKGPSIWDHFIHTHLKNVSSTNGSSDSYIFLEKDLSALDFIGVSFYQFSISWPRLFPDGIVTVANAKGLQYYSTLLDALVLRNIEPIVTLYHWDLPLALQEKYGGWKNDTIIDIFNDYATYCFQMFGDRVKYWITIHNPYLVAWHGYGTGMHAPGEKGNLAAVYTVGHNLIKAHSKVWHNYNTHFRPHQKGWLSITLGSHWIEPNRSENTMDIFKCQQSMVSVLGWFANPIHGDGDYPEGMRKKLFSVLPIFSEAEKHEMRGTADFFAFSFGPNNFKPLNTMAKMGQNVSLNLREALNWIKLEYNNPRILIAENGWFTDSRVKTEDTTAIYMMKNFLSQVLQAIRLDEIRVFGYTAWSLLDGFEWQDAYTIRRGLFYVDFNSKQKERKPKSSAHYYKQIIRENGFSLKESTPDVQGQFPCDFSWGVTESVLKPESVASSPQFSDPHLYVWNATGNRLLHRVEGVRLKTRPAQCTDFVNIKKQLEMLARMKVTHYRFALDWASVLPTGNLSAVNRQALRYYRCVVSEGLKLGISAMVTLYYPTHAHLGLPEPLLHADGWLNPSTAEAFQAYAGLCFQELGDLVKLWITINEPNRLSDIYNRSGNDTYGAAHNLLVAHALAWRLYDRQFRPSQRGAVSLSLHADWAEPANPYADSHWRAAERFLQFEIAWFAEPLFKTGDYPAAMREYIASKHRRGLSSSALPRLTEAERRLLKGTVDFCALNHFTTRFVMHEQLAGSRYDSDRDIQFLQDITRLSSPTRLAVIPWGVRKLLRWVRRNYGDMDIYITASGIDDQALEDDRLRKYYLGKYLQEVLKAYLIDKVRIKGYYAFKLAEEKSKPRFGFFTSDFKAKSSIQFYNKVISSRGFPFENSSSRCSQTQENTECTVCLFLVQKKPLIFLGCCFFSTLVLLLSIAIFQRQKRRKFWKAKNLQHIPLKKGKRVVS
human FGFR1c_β-klotho receptor complex (on HEK293 cells), sequence (P11362 22-822, chain 2 of 2): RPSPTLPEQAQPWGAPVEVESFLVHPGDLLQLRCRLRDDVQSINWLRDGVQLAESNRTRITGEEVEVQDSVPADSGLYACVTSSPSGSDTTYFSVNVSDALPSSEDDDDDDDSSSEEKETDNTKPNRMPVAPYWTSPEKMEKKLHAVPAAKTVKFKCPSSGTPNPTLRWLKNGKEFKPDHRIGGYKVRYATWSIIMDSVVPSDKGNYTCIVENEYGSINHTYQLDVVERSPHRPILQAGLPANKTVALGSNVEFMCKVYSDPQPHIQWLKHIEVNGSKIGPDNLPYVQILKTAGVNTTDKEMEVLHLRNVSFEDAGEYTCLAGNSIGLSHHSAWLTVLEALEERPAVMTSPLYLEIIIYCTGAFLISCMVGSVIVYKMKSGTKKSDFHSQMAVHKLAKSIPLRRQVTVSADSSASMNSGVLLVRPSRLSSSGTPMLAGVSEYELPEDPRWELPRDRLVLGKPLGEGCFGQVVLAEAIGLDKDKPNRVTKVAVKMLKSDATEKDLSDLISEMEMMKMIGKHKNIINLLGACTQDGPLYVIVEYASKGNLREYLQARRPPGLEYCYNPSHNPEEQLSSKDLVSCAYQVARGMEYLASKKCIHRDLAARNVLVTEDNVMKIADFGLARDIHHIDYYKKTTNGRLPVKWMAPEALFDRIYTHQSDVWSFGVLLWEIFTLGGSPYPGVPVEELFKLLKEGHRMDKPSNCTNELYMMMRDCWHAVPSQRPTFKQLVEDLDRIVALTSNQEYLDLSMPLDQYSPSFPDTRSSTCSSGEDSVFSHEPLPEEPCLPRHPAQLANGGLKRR
For the molecule B1, the “pERK activation EC50” value was around 4 nM.

As for B2, the “pERK activation EC50” value is around 3 nM.

Turning to B3, the “pERK activation EC50” value was around 3 nM.

Another assay deals with cynomolgus monkey FGFR1c_β-klotho receptor complex (on HEK293 cells) (cynomolgus monkey; human, UniProt A0A2K5WB58 1-1044; P11362 22-822). As to the kind of experiment: cell-based or functional assay.
cynomolgus monkey FGFR1c_β-klotho receptor complex (on HEK293 cells), sequence (chain, as listed by the source, chain 1 of 2): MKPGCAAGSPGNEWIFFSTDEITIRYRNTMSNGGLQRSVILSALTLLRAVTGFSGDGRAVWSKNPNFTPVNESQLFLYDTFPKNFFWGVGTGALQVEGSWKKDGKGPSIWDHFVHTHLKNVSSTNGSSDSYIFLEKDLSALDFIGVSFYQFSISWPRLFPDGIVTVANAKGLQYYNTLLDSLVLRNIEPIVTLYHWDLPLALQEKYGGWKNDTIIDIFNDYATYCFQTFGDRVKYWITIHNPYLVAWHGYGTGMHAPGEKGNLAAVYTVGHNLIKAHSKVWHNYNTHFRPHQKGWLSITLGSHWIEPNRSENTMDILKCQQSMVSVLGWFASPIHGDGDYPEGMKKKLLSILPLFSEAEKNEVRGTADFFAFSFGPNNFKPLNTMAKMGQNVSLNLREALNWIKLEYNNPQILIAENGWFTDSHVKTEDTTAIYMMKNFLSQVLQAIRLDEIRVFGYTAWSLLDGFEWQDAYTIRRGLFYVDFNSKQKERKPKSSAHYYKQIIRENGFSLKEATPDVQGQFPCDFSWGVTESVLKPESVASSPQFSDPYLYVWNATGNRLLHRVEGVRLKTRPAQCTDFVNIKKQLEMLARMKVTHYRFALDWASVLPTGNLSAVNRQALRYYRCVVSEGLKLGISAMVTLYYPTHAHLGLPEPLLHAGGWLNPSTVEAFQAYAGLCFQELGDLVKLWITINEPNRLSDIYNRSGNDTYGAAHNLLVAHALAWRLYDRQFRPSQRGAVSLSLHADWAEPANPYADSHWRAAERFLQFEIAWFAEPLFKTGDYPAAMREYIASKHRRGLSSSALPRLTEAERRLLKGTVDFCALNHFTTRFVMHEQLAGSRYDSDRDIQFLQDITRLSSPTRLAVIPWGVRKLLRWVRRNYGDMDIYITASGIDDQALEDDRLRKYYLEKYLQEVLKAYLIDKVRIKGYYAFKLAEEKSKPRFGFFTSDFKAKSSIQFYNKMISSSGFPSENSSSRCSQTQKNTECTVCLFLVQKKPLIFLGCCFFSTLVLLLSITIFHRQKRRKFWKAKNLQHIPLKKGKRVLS
cynomolgus monkey FGFR1c_β-klotho receptor complex (on HEK293 cells), sequence (P11362 22-822, chain 2 of 2): as the sequence (P11362 22-822, chain 2 of 2) above
With B1, the “pERK activation EC50” value was around 18 nM.

Take B2: the “pERK activation EC50” value is around 20 nM.

Regarding B3, the “pERK activation EC50” value was around 16 nM.

The target of a further assay is T1, human β-klotho (soluble, recombinant) (human, UniProt Q86Z14 53-997, limits assumed).
T1 construct: also called recombinant human β-klotho; beta-klotho
T1 sequence: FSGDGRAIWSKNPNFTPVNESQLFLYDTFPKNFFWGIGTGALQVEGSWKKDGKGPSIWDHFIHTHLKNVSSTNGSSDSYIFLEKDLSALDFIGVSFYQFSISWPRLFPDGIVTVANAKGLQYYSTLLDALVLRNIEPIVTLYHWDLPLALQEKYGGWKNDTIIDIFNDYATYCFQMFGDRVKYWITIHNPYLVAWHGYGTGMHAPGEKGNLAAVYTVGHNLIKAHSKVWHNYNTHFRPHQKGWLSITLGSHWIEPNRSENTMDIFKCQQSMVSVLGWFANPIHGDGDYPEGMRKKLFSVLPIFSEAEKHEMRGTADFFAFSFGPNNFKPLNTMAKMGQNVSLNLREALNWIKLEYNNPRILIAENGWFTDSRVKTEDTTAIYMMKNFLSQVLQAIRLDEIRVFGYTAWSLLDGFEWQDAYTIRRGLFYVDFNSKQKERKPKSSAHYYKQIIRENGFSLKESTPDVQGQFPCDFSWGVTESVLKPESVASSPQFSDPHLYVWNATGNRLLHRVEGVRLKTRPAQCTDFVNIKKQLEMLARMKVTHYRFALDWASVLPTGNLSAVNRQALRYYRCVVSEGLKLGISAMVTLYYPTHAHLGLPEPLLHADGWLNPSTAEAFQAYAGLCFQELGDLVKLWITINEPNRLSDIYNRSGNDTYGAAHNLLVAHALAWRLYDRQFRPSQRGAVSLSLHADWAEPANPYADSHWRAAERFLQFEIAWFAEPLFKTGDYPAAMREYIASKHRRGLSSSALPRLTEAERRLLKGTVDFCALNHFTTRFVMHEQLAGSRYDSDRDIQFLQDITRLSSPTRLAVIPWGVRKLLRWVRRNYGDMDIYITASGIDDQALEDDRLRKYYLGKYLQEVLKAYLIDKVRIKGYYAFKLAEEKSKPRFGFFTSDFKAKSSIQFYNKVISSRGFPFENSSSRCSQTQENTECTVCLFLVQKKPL
Nature of the assay: Biacore kinetics; IgG captured by anti-human Fc, human β-klotho as analyte. How it is done:
Binding affinities of antibodies were determined using Biacore kinetic analysis. A Series S Sensor Chip CMS (GE Healthcare, Cat. No. BR-1005-30) was equilibrated to ambient temperature for approximately 30 minutes The system was primed with 1×HBS-EP+ buffer (10×soln, GE Healthcare, Cat. No. BR-1006-69) and the chip was loaded into the Biacore instrument. The chip was normalized using BIAnormalizing (GE Healthcare, Cat. No. BR-1006-51) solution and the chip was conditioned with 50 mM NaOH using a flow rate of 60 μL/minute for all flow paths. The 30 second injection was repeated three times with a wait time of 60 seconds. 10 mM sodium acetate pH 5.0 was injected at 60 μL/minute for 120 seconds and repeated twice. After a new cycle was started for immobilizing the anti-human IgG Fc using the Human Antibody Capture Kit (GE Healthcare, Cat. No. BR-1008-39). The anti-human Fc Ab was diluted to 50 μg/mL in immobilization buffer (10 mM sodium acetate pH 5.0). The amine coupling reagents were mixed 1:1 (EDC and NHS) and injected for 7 minutes at 10 μL/minute. Then anti-human Fc Ab was injected for 6 minutes at 10 μL/minute. Lastly ethanolamine was injected for 7 minutes at 10 μL/minute with a wait time of 60 seconds. This should result in immobilization of approximately 8000-10000 RU. Then we performed test injections for an Rmax of 10 RUs (capture levels=˜28 RUs) for NOV004, NOV005 and NOV006. This was done using a flow rate of […] and a 3 M MgCl₂ regeneration buffer. Each flow cell was evaluated each time due to changes in chip surface, affinity of IgGs, IgG protein quality and differences in dilutions. We started with an IgG concentration of 0.5 ug/mL and increased (or decreased) the concentration depending on the results from the sample injections. […] After capturing parameters were determined for each antibody in each flow cell, human β-klotho at various concentrations was passed over the chip and kₐ (1/Ms), kd (1/s), KD (M), and Rmax (RU) were calculated by Biacore kinetics.
In vitro work was done to show the binding and cell activity properties of NOV004, NOV005, and NOV006. […]
Consider B1, for which the Kd was around 0.4 nM.

Turning to B2, the Kd was around 0.3 nM.

On to B3, for which the dissociation constant Kd is around 0.3 nM.
